In the assay the target is hRpn10^322–366 peptide with Y326 phosphorylated (human) (UniProt P55036). The experiment in a line: ITC; 25 °C, MicroCal iTC200; E6AP AZUL injected into hRpn10 305-377 (0.0405 mM) or hRpn10 322-366 peptides (0.01 mM) in the cell; 10 mM MOPS pH 6.5, 50 mM NaCl, 5 mM DTT, 10 μM zinc sulfate; one-site fit. For orientation: Isothermal titration calorimetry measures the heat released or taken up as one component is titrated into another.

Sequence of E6AP AZUL (amino-terminal zinc-binding domain of ubiquitin E3a ligase), amino acids 24 to 87 (Q05086 24-87): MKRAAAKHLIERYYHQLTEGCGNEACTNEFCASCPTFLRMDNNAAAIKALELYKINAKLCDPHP

Substance “E6AP AZUL (amino-terminal zinc-binding domain of ubiquitin E3a ligase), amino acids 24 to 87 (from UniProt Q05086 24-87) (domain or fragment)” returned a fold reduction of affinity against unphosphorylated hRpn10 322-366 of 10 fold.

These data come from paper PMC7064531.
